What was measured:
[1] = target: human FRα on cells (human) (UniProt P15328); experiment: flow cytometry competition on H2110 cells; competitor: v23924; first of two values
[2] = target: human FRα on cells (human) (UniProt P15328); experiment: flow cytometry competition on H2110 cells; competitor: Mirvetuximab; second of two values
[3] = target: human FRα on cells (human) (UniProt P15328); experiment: flow cytometry competition on H2110 cells; competitor: Farletuzumab (self); first of two values
[4] = target: human FRα on cells (human) (UniProt P15328); experiment: flow cytometry competition on H2110 cells; competitor: v23924; second of two values
[5] = target: human FRα on cells (human) (UniProt P15328); experiment: flow cytometry competition on H2110 cells; competitor: Farletuzumab (self); second of two values
[6] = target: human FRα on cells (human) (UniProt P15328); experiment: flow cytometry competition on H2110 cells; competitor: Mirvetuximab; first of two values
[7] = target: human FRα on cells (human) (UniProt P15328); experiment: flow cytometry competition on H2110 cells; competitor: Mirvetuximab (self); second of two values
[8] = target: human FRα on cells (human) (UniProt P15328); experiment: flow cytometry competition on H2110 cells; competitor: Farletuzumab; first of two values
[9] = target: human FRα on cells (human) (UniProt P15328); experiment: flow cytometry competition on H2110 cells; competitor: Farletuzumab; second of two values
[10] = target: human FRα on cells (human) (UniProt P15328); experiment: flow cytometry competition on H2110 cells; competitor: Mirvetuximab (self); first of two values

Chain of human FRα on cells (human) (P15328 25-234 limits assumed): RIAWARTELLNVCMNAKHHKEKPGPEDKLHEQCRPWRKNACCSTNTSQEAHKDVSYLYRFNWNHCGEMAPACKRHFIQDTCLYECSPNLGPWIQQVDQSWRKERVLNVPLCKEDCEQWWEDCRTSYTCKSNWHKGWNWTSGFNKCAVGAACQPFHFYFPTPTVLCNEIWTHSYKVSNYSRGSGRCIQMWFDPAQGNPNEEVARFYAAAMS

Binder	% Competition Binding [1]	% Competition Binding [2]	% Competition Binding [3]	% Competition Binding [4]	% Competition Binding [5]	% Competition Binding [6]	% Competition Binding [7]	% Competition Binding [8]	% Competition Binding [9]	% Competition Binding [10]
farletuzumab (v31629) (antibody, part only; not given: constant regions, V domains shown, not shown: another chain or arm of the molecule) VH: EVQLVESGGGVVQPGRSLRLSCSASGFTFSGYGLSWVRQAPGKGLEWVAMISSGGSYTYYADSVKGRFAISRDNAKNTLFLQMDSLRPEDTGVYFCARHGDDPAWFAYWGQGTPVTVSS VL: DIQLTQSPSSLSASVGDRVTITCSVSSSISSNNLHWYQQKPGKAPKPWIYGTSNLASGVPSRFSGSGSGTDYTFTISSLQPEDIATYYCQQWSSYPYMYTFGQGTKVEIK	99%	75%	98%	72%	100%	91%				
mirvetuximab (v17716) (antibody, part only; not given: constant regions, V domains shown, not shown: another chain or arm of the molecule) VH: QVQLVQSGAEVVKPGASVKISCKASGYTFTGYFMNWVKQSPGQSLEWIGRIHPYDGDTFYNQKFQGKATLTVDKSSNTAHMELLSLTSEDFAVYYCTRYDGSRAMDYWGQGTTVTVSS VL: DIVLTQSPLSLAVSLGQPAIISCKASQSVSFAGTSLMHWYHQKPGQQPRLLIYRASNLEAGVPDRFSGSGSKTDFTLTISPVEAEDAATYYCQQSREYPYTFGGGTKLEIK	13%			7%			98%	99%	100%	100%

Source: patent US20240424125A1
